Results published in the supplement of paper PMC12764529.
± gives the half width of the 95% confidence interval.

Assay: folding stability dG unfold from chymotrypsin proteolysis; higher = more stable
How it was run: (§1)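 Sequencing followed digestion of designed mini-proteins with trypsin and chymotrypsin, each at 11 concentrations in threefold dilutions together with a no-protease condition. The mini-proteins were under 80 residues, had no cysteine, sat in a PA-tagged cDNA display construct, and were kept only if AlphaFold2 dimer inter-PAE was above 15. From the counts, Bayesian fitting gave K50, and unfolding free energy was derived against a sequence-predicted unfolded-state K50 and a shared folded-state K50, per protease or combined.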

Sequence	folding stability dG unfold
KTISSDELLELLGVSKSELKKLPLEAIVDEVKKALPPGVAVSAKAEPIPENPSYTIVVELKNGEPVTITLDS [r1_340_TrMRF]	1 ± 0.026 kcal/mol
SAGGSAPPFYIAINPDKPKSIHIMPPGSPDMRDDDGSKVIPFRTEEEFLKLIQEIKKKGVDKIHIYSAGGSA [r15_1004_TrROS]	0.744 ± 0.24 kcal/mol
SAGGVREIAKRIANFAREHGYEVEVDEIEPPPNGYVVIDAKIQMRDGGKPVHEFPISIRFPPPPGDPSAGGS [r8_102_TrROS]	3.51 ± 0.16 kcal/mol
SAGGSAGGSSYTTSTATDPNADVTTTTTTYPDSIVTPVWDPRTGKVVETVTTTPDGTTTTVAASAGGSAGGS [r12_563_JUSTAS]	0.0262 ± 0.17 kcal/mol
SAGGGMNISVDPNQSVTIPVTRIENGVPVETTVTISLPAGSTISPEGDNIIINYPHTGQTITLPTTLISAGG [r13_275_JUSTAS]	-0.174 ± 0.1 kcal/mol
SAGGSAGGSAGGDDNDKEPIGEVTVEVIIPPQIPIRIRWDIYKDPPNGNAMMNMDIDIHSAGGSAGGSAGGS [r10_6_TrROS]	0.968 ± 0.12 kcal/mol
SAGGSAGGSAKPKVVLVEYDEKTGKFKIVFPDGKELEITGLTPEQIKELAKSLGADYVIIESAGGSAGGSAG [r3_78_TrMRF]	4.06 ± 0.098 kcal/mol
SAGGSAGGSSPPLEILDPVSATLPDGGTLTVAKAAGSYYLVTTTTYDPATGTATSTTTVVPLESAGGSAGGS [r20_15_JUSTAS]	0.827 ± 0.076 kcal/mol
SAGGSASMTTKRPVSPELRAKVEAAAAAGDPAITVTLPVTLPDGRTVTLTVTKDPTADTFTATVVSSAGGSA [r15_700_JUSTAS]	0.367 ± 0.3 kcal/mol
SAGGSAGGSAGGSPVSPKIVTTDPGPNVITTVYYSPEDGKVLSTSTTVVPPLPPGEILTSAGGSAGGSAGGS [r10_1051_JUSTAS]	0.817 ± 0.21 kcal/mol
SAGGSAGGSAGGSQDLVKITIKLPGGEEKEITTPAEEIDKAIKELGIKKEDVEILEITEVSAGGSAGGSAGG [r7_211_JUSTAS]	1.56 ± 0.051 kcal/mol
SAGGSAGGSMETVTVLLNTPGTPVTFTFPVPAGVGEEAVKELVRKALPEVEIEVVEITTTPAASAGGSAGGS [r12_427_JUSTAS]	0.585 ± 0.21 kcal/mol
SAGGPKKRKWVTFTIDIYIPTPPGQSIEDEARKLAENLGIEITDVEVEPHPNGMVKIDVTVTIWIPYSAGGS [r8_292_TrROS]	4.37 ± 0.097 kcal/mol
SAMTVVIPPNLTALTEDGRPIHPDQVVEVYEAEAFPELGRVVARVKVFDPVSGEETEERLVLFFPDGAESAG [r14_258_TrMRF]	1.66 ± 0.021 kcal/mol
SAGGMMKLNPKTLETKTTTVPLPDGSTVTLTTKLVELKFPNGEVELVTLTVETFPSEPTLTVLEEKPLSAGG [r19_158_JUSTAS]	0.45 ± 0.1 kcal/mol
SAGGSAMKIKRDNGKVRIEIDFPPEMKNPERMLMNIRSAINENPNKPIKVTMPPGHREWAKRLLKESAGGSA [r15_89_TrROS]	-0.686 ± 0.44 kcal/mol
SAGGSAGGSATKTIKVKNADGETVELTVEKREDGSYKITLTFPDGTKKTFTIKPGEKIVIKPSAGGSAGGSA [r18_115_TrROS_Hall]	4.24 ± 0.098 kcal/mol
SAGGSAGGEISPEDIESVETETRTLPNGLKITRTRVRVKKTNQWFELVRIEPLPAEELSEEELKSAGGSAGG [r6_757_TrROS_Hall]	1.78 ± 0.062 kcal/mol
SAGGSAGGSAMITTYDPKTGLVYELVPDPVPGVGVERLVVRVVTVEEFPDAIVRKVEVRPESAGGSAGGSAG [r3_409_JUSTAS]	1.01 ± 0.074 kcal/mol
SAGGSAGGSAGGKATLGEDGFLVIEREVELPDGPYRPETLVIPLPELTPEEVERLLETESAGGSAGGSAGGS [r10_1096_TrMRF]	0.919 ± 0.044 kcal/mol
SAGGNLDKEFVRDIIENFGFTRIEVEEHPNRKVVTFRFENMDVVIRPDGQIEIENPGGEPVFQIEVPSAGGS [r8_147_TrROS]	1.63 ± 0.11 kcal/mol

Assay: folding stability dG unfold (combined trypsin and chymotrypsin); higher = more stable
How it was run: as §1

Sequence	folding stability dG unfold
SAGGSAGGKKKVKYYKIKEVKIEKDEDGNYTITVKVDGKTFTITIPKEKIKPGMKLKDIVIKIKSAGGSAGG [r6_255_TrROS_Hall]	3.16 ± 0.11 kcal/mol
SAGGSAGGSAPVLVLETESGVKFETLSLGPGPGALALIVTPDKPALALINLDDPNNIKILASAGGSAGGSAG [r3_450_TrMRF]	1.18 ± 0.1 kcal/mol
SAGPPGQPVKTIEIMIEFPPGQTMEEARERVEEIADEIQRKFPKIKSIDVDVQKDDDTYYVNANITIPYSAG [r5_446_TrROS]	0.688 ± 0.19 kcal/mol
SAGGSAGGSAKKYVLLVTYRHPENGETRTVLVEVETEEEVERAVKELAPPEFDEVKVYVLPASAGGSAGGSA [r18_258_TrMRF]	2.83 ± 0.12 kcal/mol
SAGGSAGGSAMSEEERRRRAEEERRKKPPVFKITEITVERDEDGNLRVTFRLEDGSTVTIELSAGGSAGGSA [r18_423_TrROS_Hall]	2.91 ± 0.14 kcal/mol
SDETVELPTVYTLYFGKDGTPRYYITVTLGDGPVAMELPEVSPDVKDGDVVPVKVPSSVVTSYSVSSAPASA [r9_769_JUSTAS]	0.808 ± 0.059 kcal/mol
SLDPGEPVYRIKVKIEMWNPNGKPIAEFTIPIRTLEEAKEAIKEMAREIAEKMGHPDMPIRIKDIEIEPYSA [r9_376_TrROS]	2.27 ± 0.099 kcal/mol
SAGGSAGGPPPAKVVEVREVTLEDLENLDKLLVVFPDGKVYTSPEALRKWLEEGKPVLVAVFEGSAGGSAGG [r6_827_TrMRF]	1.88 ± 0.15 kcal/mol
SAGGSAGGSMIIIVKLPNGEELPIEVEGEEEAEKIAEEIVKALIEKGITPVSVEIRPIKPEEGSAGGSAGGS [r12_301_TrMRF]	2.97 ± 0.21 kcal/mol
SAGGSAGGSAGGSIVVRITPNPETGTVTIDVYRVLPPGVLRPGAGFTVPLSLIPPGAVVGSAGGSAGGSAGG [r7_455_TrMRF]	1.09 ± 0.053 kcal/mol
